The target of test [1] is T1, human IL-12Rβ1 on human T cells and NK cells (human, UniProt P42701 24-662).
T1 construct: whole, on cells
In words: flow cytometry, 200 nM human p40 tetramer (streptavidin-AF647) against streptavidin alone, human PBMC: NK cells and CD8+ T cells ex vivo and CD8+ T cell blasts. A general note: In flow cytometry, cells or beads pass a laser one at a time.

The target in test [2] is T2, human IL-12Rβ1 (soluble, SPR analyte) (UniProt P42701 24-545, limits assumed).
T2 construct: also called IL-12 receptor beta 1
As to the kind of experiment: SPR, IL-12Rβ1 over immobilized IL-12p40, steady state affinity model. For orientation: Surface plasmon resonance follows binding to a sensor surface in real time, without labels.

The values that follow come from patent publication US20230220031A1 (Stanford University, published 2023).

B1: human p40 tetramer (biotinylated human IL-12p40 on streptavidin-AF647) (ligand)
chain: IWELKKDVYVVELDWYPDAPGEMVVLTCDTPEEDGITWTLDQSSEVLGSGKTLTIQVKEFGDAGQYTCHKGGEVLSHSLLLLHKKEDGIWSTDILKDQKEPKNKTFLRCEAKNYSGRFTCWWLTTISTDLTFSVKSSRGSSDPQGVTCGAATLSAERVRGDNKEYEYSVECQEDSACPAAEESLPIEVMVDAVHKLKYENYTSSFFIRDIIKPDPPKNLQLKPLKNSRQVEVSWEYPDTWSTPHSYFSLTFCVQVQGKSKREKKDRVFTDKTSATVICRKNASISVRAQDRYYSSSWSEWASVPCSGLNDIFEAQKIEWHEHHHHHH
modifications: biotinylated
notes: also called human p40 tetramers
For B1, in test [1], the binding result is on record as “binds”.

B2: human IL-12p40 (23-328) with C-terminal AviTag and 6x His (ligand)
chain: B1 chain
notes: Immobilized partner in the SPR experiment; also called interleukin-12 subunit p40
Take B2: binding in test [2] was put at a Kd of 1.7 µM.

Broadly, the Kd is the equilibrium constant for the complex coming apart. Low values mean a tighter complex, high ones a looser complex.
